Consider 6 molecules from US20070264195A1 (H LUNDBECK A S, published 2007).

The labels stand for the following.
B4: recombinant human p75 neurotrophin receptor/Fc chimera (R&D Systems) (Fc fusion, UniProt P08138 29-250, looked up)
chain: KEACPTGLYTHSGECCKACNLGEGVAQPCGANQTVCEPCLDSVTFSDVVSATEPCKPCTECVGLQSMSAPCVEADDAVCRCAYGYYQDETTGRCEACRVCEAGSGLVFSCQDKQNTVCEECPDGTYSDEANHVDPCLPCTVCEDTERQLRECTRWADAECEEIPGRWITRSTPPEGSDSTAPSTQEPEAPPEQDLIASTVAGVVTTVMGSSQPVVTRGTTDN
notes: Bought reagent; also called p75-IgG-Fc chimeric protein; p75NTR; not shown: IgG Fc of the bought chimera

Test [1] addresses T1, purified human Sortilin extracellular domain (human, UniProt Q99523 78-755).
T1 construct: also called immobilized Sortilin; NTR-3
T1 sequence: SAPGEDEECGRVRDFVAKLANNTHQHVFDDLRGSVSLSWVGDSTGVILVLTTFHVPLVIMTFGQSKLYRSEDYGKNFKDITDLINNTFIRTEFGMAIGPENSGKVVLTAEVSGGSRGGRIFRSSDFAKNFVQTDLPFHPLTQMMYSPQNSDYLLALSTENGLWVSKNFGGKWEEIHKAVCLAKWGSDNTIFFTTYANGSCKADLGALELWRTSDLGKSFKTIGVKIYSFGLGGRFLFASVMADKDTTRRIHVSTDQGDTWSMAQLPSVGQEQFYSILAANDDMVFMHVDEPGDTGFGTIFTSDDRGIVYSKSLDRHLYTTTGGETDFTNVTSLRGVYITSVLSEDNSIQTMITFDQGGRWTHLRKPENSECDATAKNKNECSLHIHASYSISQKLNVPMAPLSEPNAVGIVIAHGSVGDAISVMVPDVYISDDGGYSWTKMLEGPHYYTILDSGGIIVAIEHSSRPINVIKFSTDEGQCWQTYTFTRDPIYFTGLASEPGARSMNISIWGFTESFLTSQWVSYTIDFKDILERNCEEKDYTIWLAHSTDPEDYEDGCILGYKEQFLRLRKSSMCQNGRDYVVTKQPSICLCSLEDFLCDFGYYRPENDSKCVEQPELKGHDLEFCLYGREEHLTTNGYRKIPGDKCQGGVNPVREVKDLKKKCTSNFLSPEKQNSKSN
Put plainly: SPR (BIAcore), 25-500 nM propeptide over Sortilin extracellular domain immobilized at 51 fmol/mm2. The procedure: (§1) FIG. 4: Characterization of binding of the proNGF propeptide to p75, TrkA, and Sortilin as measured by surface plasmon resonance analysis (BIAcore). Binding of 25-500 nM propeptide was measured to 91.5 fmol/mm² immobilized p75-IgG-Fc chimeric protein (upper panel), to 66 fmol/mm² immobilized TrkA-IgG-Fc (middle panel), and to 51 fmol/mm² purified Sortilin extracellular domain (lower panel). […] There was no detectable binding to p75 and TrkA.

In test [2] the target is B4. Put plainly: SPR (BIAcore), p75-IgG-Fc immobilized at 91.5 fmol/mm2. The procedure: as §1
On the technique in general: In SPR one partner is held on a chip, and binding of the other changes the refractive index at the surface.

In test [3] the target is T2, recombinant human TrkA/Fc chimera (R&D Systems) (human, UniProt P04629-2 34-407).
T2 construct: Bought reagent; also called TrkA-IgG-Fc; not shown: IgG Fc of the bought chimera
T2 sequence (P04629 other isoform, or with tags, fused parts or gaps mutant): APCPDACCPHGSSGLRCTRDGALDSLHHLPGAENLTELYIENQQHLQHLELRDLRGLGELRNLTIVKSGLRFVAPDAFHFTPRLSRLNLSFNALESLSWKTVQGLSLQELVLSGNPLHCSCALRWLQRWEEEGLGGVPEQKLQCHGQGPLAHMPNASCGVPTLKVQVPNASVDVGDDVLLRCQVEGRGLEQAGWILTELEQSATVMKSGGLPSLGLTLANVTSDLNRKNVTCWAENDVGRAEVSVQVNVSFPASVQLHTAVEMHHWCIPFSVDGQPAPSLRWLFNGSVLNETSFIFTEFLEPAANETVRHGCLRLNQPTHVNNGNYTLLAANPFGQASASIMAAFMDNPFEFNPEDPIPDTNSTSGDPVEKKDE
Put plainly: SPR (BIAcore), TrkA-IgG-Fc immobilized at 66 fmol/mm2. The procedure: as §1

Test [4] addresses T1, purified human Sortilin extracellular …. Put plainly: SPR (BIAcore), 5-500 nM proBDNF over Sortilin extracellular domain immobilized at 94 fmol/mm2. The source says:
(§2) FIG. 7: Characterization of proBDNF and BDNF binding to purified Sortilin as measured by surface plasmon resonance (BIAcore). Rat proBDNF was produced in 293 cells as described in Lee, R., Kermani, P., Teng, K. K. & Hempstead, B. L. Regulation of cell survival by secreted proneurotrophins. Science 294, 1945-1948 (2001). and purified from the conditioned medium. Mature recombinant human BDNF was from Promega (#G1491) and the pro-domain of human BDNF fused to GST (glutathione S-transferase) was produced in E. coli and purified by glutathione-sepharose affinity chromatography. Binding of 5-500 nM proBDNF (upper panel), pro-domain of proBDNF (a GST-fusion protein, middle panel) or BDNF (lower panel) was measured to 94 fmol/mm2 immobilized purified Sortilin extracellular domain. The experiment was carried out essentially as described for FIGS. 2-4.

The target is the same in test [5]. Put plainly: SPR (BIAcore), 5-500 nM GST-pro-domain over Sortilin extracellular domain immobilized at 94 fmol/mm2.
Description: as §2

In test [6] the target is T3, Human recombinant proNGF (produced in E. coli) (human, UniProt P01138 19-241).
T3 construct: The end 241 is the end of the entry as printed
Description: SPR (BIAcore), 25-500 nM proNGF over p75-IgG-Fc immobilized at 91.5 fmol/mm2. The procedure: FIG. 3: Characterization of proNGF binding to p75, TrkA, and Sortilin as measured by surface plasmon resonance analysis (BIAcore). Binding of 25-500 nM proNGF was measured to 91.5 fmol/mm² immobilized p75-IgG-Fc chimeric protein (upper panel), to 66 fmol/mm² immobilized TrkA-IgG-Fc (middle panel), and to 51 fmol/mm² purified Sortilin extracellular domain (lower panel).

Test [7] concerns the target T1, purified human Sortilin extracellular …. Description: SPR (BIAcore), other preparations of mature BDNF over immobilized Sortilin; other preparations of mature BDNF.
Test [8] has the same target. Description: SPR (BIAcore), 5-500 nM BDNF over Sortilin extracellular domain immobilized at 94 fmol/mm2; Promega #G1491 preparation.
Description: as §2

The target in test [9] is B4. Description: SPR (BIAcore), 50-500 nM NGF over p75-IgG-Fc immobilized at 91.5 fmol/mm2. The procedure:
(§3) FIG. 2: Characterization of NGF binding to p75, TrkA, and Sortilin as measured by surface plasmon resonance analysis (BIAcore). Binding of 50-500 nM NGF was measured to 91.5 fmol/mm² immobilized p75-IgG-Fc chimeric protein (upper panel), to 66 fmol/mm² immobilized TrkA-IgG-Fc (middle panel), and to 51 fmol/mm² purified Sortilin extracellular domain (lower panel).

Test [10] concerns the target T2, recombinant human TrkA/Fc chimera (R&D …). Put plainly: SPR (BIAcore), 50-500 nM NGF over TrkA-IgG-Fc immobilized at 66 fmol/mm2. The procedure:
as §3

Test [11] has as its target T1, purified human Sortilin extracellular …. Description: SPR (BIAcore), 50-500 nM NGF over Sortilin extracellular domain immobilized at 51 fmol/mm2. The procedure: as §3

B1: human NGF-propeptide expressed in E. coli (peptide)
chain: EPHSESNVPAGHTIPQVHWTKLQHSLDTALRRARSAPAAAIAARVAGQTRNITVDPRLFKKRRLRSPRVLFSTQPPREAADTQDLDFEVGGAAPFNRTHRSKR
notes: The residues 19-121 come from the description of the propart for NGF; also called proNGF propeptide; propeptide of proNGF
With B1, the Kd in test [1] was ~87 nM. Also, the binding result in test [2] and in test [3] was “no binding (tested: 25-500 nM propeptide)” each time.

B2: Rat proBDNF (produced in 293 cells, purified from conditioned medium) (ligand, UniProt P23363 19-249, looked up)
chain: APMKEANVHGQGNLAYPAVRTHGTLESVNGPRAGSRGLTTTSLADTFEHVIEELLDEDQKVRPNEENHKDADLYTSRVMLSSQVPLEPPLLFLLEEYKNYLDAANMSMRVRRHSDPARRGELSVCDSISEWVTAADKKTAVDMSGGTVTVLEKVPVSKGQLKQYFYETKCNPMGYTKEGCRGIDKRHWNSQCRTTQSYVRALTMDSKKRIGWRFIRIDTSCVCTLTIKRGR
notes: Pro-form of BDNF
Turning to B2, the Kd in test [4] was ~3 nM.

B3: pro-domain of human BDNF fused to GST (glutathione S-transferase), produced in E. coli (other)
chain: APMKEANIRGQGGLAYPGVRTHGTLESVNGPKAGSGLTSLADTFEHVIEELLDEDQKVRPNEENNKDADLYTSRVMLSSQVPLEPPLLFLLEEYKNYLDAANMSMRVRR
notes: The residues 19-127 come from the description of the propart for BDNF; also called GST-pro-domain of proBDNF; pro-domain of proBDNF (a GST-fusion protein); not shown: glutathione S-transferase (GST) fusion partner
For B3, in test [5], the Kd is ~58 nM.

B4: in test [6], the Kd was ~12 nM.

B5: Mature recombinant human BDNF (Promega #G1491) (ligand)
chain: HSDPARRGELSVCDSISEWVTAADKKTAVDMSGGTVTVLEKVPVSKGQLKQYFYETKCNPMGYTKEGCRGIDKRHWNSQCRTTQSYVRALTMDSKKRIGWRFIRIDTSCVCTLTIKRGR
notes: also called mature BDNF
In the case of B5, the figures for the Kd in test [7] and in [8] were 10 nM and ~40 nM, respectively.

B6: Mature murine NGF (Austral Biologicals) (ligand, UniProt P01139 122-241, looked up)
chain: SSTHPVFHMGEFSVCDSVSVWVGDKTTATDIKGKEVTVLAEVNINNSVFRQYFFETKCRASNPVESGCRGIDSKHWNSYCTTTHTFVKALTTDEKQAAWRFIRIDTACVCVLSRKATRRG
notes: mature; also called nerve growth factor
For B6, the Kd is ~1 nM in test [9], ~2 nM in test [10] and ~87 nM in [11].

A word on the Kd: it is a measure of binding affinity in units of concentration.
